Like-named read-outs stand apart in the source and are kept apart here. Starred links: 1 amine or outer side, 2 acyl side, 3 side chain; linkers in the order of their positions; H or OH if unused. Non-standard residues stand in square brackets, D forms with d. *: point of attachment. (iBu)F(pNH2) = N-alpha-isobutyl-4-amino-phenylalanine, CC(C)CN([C@@H](Cc1ccc(N[*:3])cc1)C(=O)[*:2])[*:1]; Phe(3-I,4-NH2) = 4-amino-3-iodo-L-phenylalanine, O=C([C@H](Cc1ccc(N[*:3])c(I)c1)N[*:1])[*:2]; (Chx-CH2)Y = N-(cyclohexylmethyl)-Tyr, O=C([C@H](Cc1ccc(O[*:3])cc1)N(CC1CCCCC1)[*:1])[*:2]; (iBu)Y = N-alpha-isobutyl-tyrosine, CC(C)CN([C@@H](Cc1ccc(O[*:3])cc1)C(=O)[*:2])[*:1]; 4‑isoquinolinoyl = 4-isoquinolinoyl N-terminal acyl group, O=C(c1cncc2ccccc12)*; dpAph = D-4-amidinophenylalanine, N=C(N)c1ccc(C[C@@H](N[*:1])C(=O)[*:2])cc1; Phe(4-amidino) = N=C(N)c1ccc(C[C@H](N)C(=O)O)cc1; Phe(4-NH2) = Nc1ccc(C[C@H](N)C(=O)O)cc1; 2‑naphthylmethyl = c1ccc2cc(C*)ccc2c1; Quinaldoyl = O=C(c1ccc2ccccc2n1)*; NMeL = CN[C@@H](CC(C)C)C(=O)O; Chg = N[C@H](C(=O)O)C1CCCCC1; Tfa = O=C(C(F)(F)F)*
Columns and labels:
[1] = biological target: T1, human factor Xa (Enzyme Research Laboratories, Inc.) (human, UniProt P00742 41-179; P00742 235-488, limits assumed); test: chromogenic FXa inhibition
T1 sequence (P00742 41-179 limits assumed, chain 1 of 2): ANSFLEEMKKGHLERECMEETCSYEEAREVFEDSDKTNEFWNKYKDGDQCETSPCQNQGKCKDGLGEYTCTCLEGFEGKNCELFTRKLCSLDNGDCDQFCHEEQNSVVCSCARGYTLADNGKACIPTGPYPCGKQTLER
T1 sequence (P00742 235-488 limits assumed, chain 2 of 2): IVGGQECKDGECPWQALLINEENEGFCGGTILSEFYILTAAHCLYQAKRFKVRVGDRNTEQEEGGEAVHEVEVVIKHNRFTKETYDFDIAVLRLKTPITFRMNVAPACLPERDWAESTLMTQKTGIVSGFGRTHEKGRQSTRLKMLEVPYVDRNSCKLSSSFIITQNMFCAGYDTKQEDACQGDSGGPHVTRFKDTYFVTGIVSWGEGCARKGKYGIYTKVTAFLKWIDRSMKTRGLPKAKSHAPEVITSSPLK
Procedure, shortened: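 Human FXa (0.5 nM) preincubated 10 min with inhibitor in TBS-P (pH 7.8, 200 mM NaCl, PEG-8000), then S-2765 added (140 μM). Initial hydrolysis rate read at 405 nm, 25° C.; IC50 by linear regression of relative rate vs log concentration.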

[2] = biological target: T1, human factor Xa (Enzyme Research …); test: chromogenic FXa inhibition; remark: listed apart in the source
Experimental: TBS-P buffer (50 mM Tris-Cl, pH 7.8, 200 mM NaCl, 0.05% (w/v) PEG-8000, 0.02% (w/v) NaN_3) was used for this assay. The IC$50$ was determined by combining in appropriate wells of a Costar half-area microtiter plate 25 μl human factor Xa (Enzyme Research Laboratories, Inc.; South Bend Ind.) in TBS-P; 40 μl 10% (v/v) DMSO in TBS-P (uninhibited control) or various concentrations of a peptide to be tested diluted in 10% (v/v) DMSO in TBS-P; and substrate S-2765 (Nα-benzyloxycarbonyl-D-Arg-Gly-L-Arg-p-nitroanilide; Kabi Pharmacia, Inc.; Franklin Ohio) in TBS-P.
The assays were performed by pre-incubating the peptide inhibitor plus enzyme for 10 min, then the assay was initiated by adding substrate to obtain a final volume of 100 μl. The initial velocity of chromogenic substrate hydrolysis was measured by the change in absorbance at 405 nm using a Bio-tek Instruments kinetic plate reader (Ceres UV900HDi) at 25° C. during the linear portion of the time course (usually 1–5 min after addition of substrate). The concentration of inhibitor that caused a 50% decrease in the rate of substrate hydrolysis was predicted by linear regression after plotting the relative rates of hydrolysis (compared to the uninhibited control) versus the log of the peptide concentration. The enzyme concentration was 0.5 nM and substrate concentration was 140 μM.

[3] = biological target: T1, human factor Xa (Enzyme Research …); test: cell-based or functional assay

Ki [1] | Ki [2] | EC50 (concentration giving 50% inhibition of coagulation), in vitro dilute prothrombin time assay, pooled human plasma [3] | Binder
< 100 µM | < 100 µM |  | Ac-W[Chg]RLP-NH2 (SMILES CC(=O)N[C@@H](Cc1c[nH]c2ccccc12)C(=O)N[C@H](C(=O)N[C@@H](CCCNC(=N)N)C(=O)N[C@@H](CC(C)C)C(=O)N1CCC[C@H]1C(N)=O)C1CCCCC1, also called Ac-Trp-Chg-Arg-Leu-Pro-NH2) [Ac-W-Chg-R-L-P-NH2]
< 100 µM | < 100 µM | 0.225 µM | Ac-Y[Chg]RLP-NH2 (SMILES CC(=O)N[C@@H](Cc1ccc(O)cc1)C(=O)N[C@H](C(=O)N[C@@H](CCCNC(=N)N)C(=O)N[C@@H](CC(C)C)C(=O)N1CCC[C@H]1C(N)=O)C1CCCCC1, also called Ac-Tyr-Chg-Arg-Leu-Pro-NH2) [Ac-Y-Chg-R-L-P-NH2]
 | < 100 µM |  | Ac-[(Chx-CH2)Y][Chg]RLP-NH2 [Ac-(Chx-CH2)Tyr-Chg-Arg-Leu-Pro-NH2]
< 100 µM |  | 0.3 µM | Tfa-[(iBu)Y][Chg]RLP-NH2 (also called Tfa-(iBu)Tyr-Chg-Arg-Leu-Pro-NH2) [Tfa-(iBu)Y-Chg-R-L-P-NH2]
< 100 µM | < 100 µM |  | XIRLP (N-term Tfa; N-(iBu) on Y1; C-term NH2) [Tfa-(iBu)Y-I-R-L-P-NH2]
 | < 100 µM |  | {2‑naphthylmethyl}-[Phe(4-NH2)][Chg]RLP-NH2 (SMILES CC(C)C[C@H](NC(=O)[C@H](CCCNC(=N)N)NC(=O)[C@@H](NC(=O)[C@H](Cc1ccc(N)cc1)NCc1ccc2ccccc2c1)C1CCCCC1)C(=O)N1CCC[C@H]1C(N)=O) [(2-naphythl-CH2)Phe(pNH2)-Chg-Arg-Leu-Pro-NH2]
 | < 100 µM |  | Ac-[Phe(3-I,4-NH2)][Chg]RLP-NH2 (SMILES CC(=O)N[C@@H](Cc1ccc(N)c(I)c1)C(=O)N[C@H](C(=O)N[C@@H](CCCNC(=N)N)C(=O)N[C@@H](CC(C)C)C(=O)N1CCC[C@H]1C(N)=O)C1CCCCC1) [Ac-Phe(3I,4NH2)-Chg-Arg-Leu-Pro-NH2]
 | < 100 µM |  | {4‑isoquinolinoyl}-[Phe(4-NH2)][Chg]RLP-NH2 (SMILES CC(C)C[C@H](NC(=O)[C@H](CCCNC(=N)N)NC(=O)[C@@H](NC(=O)[C@H](Cc1ccc(N)cc1)NC(=O)c1cncc2ccccc12)C1CCCCC1)C(=O)N1CCC[C@H]1C(N)=O) [(4-isoquinolinoyl)-Phe(pNH2)-Chg-Arg-Leu-Pro-NH2]
< 100 µM | < 100 µM |  | XIRLP (N-term Ac; N-(2-Me-nBu) on Y1; C-term NH2) [Ac-(2-Me-nBu)Y-I-R-L-P-NH2]
 | < 100 µM |  | Quinaldoyl-F[Chg]RLP-NH2 (not fully specified (residue 1); printed as (2-quinolinoyl)-Phe(NH2)-Chg-Arg-Leu-Pro-NH2) [(2-quinolinoyl)-Phe(NH2)-Chg-Arg-Leu-Pro-NH2]
< 100 µM | < 100 µM |  | Ac-[Phe(4-amidino)]IRLP-NH2 (SMILES CC[C@H](C)[C@H](NC(=O)[C@H](Cc1ccc(C(=N)N)cc1)NC(C)=O)C(=O)N[C@@H](CCCNC(=N)N)C(=O)N[C@@H](CC(C)C)C(=O)N1CCC[C@H]1C(N)=O) [Ac-pAph-I-R-L-P-NH2]
< 100 µM |  |  | XIRLP (N-term Ac; N-(2-Me-Bzl) on Y1; C-term NH2) [Ac-(2-Me-Bzl)Y-I-R-L-P-NH2]
< 100 µM | < 100 µM |  | XIRLP (N-term Ac; N-(Chx-CH2) on Y1; C-term NH2, also called Ac-(Chx-CH2)Tyr-Ile-Arg-Leu-Pro-NH2; Ac-(Chx-CH2)-Tyr-Ile-Arg-Leu-Pro-NH2) [Ac-(Chx-CH2)Y-I-R-L-P-NH2]
< 100 µM |  |  | XIRLP (N-term Ac; N-(Cyclopropyl-CH2) on Y1; Y1=Y(SO3H); C-term NH2) [Ac-(Cyclopropyl-CH2)Y(SO3H)-I-R-L-P-NH2]
< 100 µM | < 100 µM |  | Ac-[Phe(4-NH2)][Chg]RLP-NH2 (SMILES CC(=O)N[C@@H](Cc1ccc(N)cc1)C(=O)N[C@H](C(=O)N[C@@H](CCCNC(=N)N)C(=O)N[C@@H](CC(C)C)C(=O)N1CCC[C@H]1C(N)=O)C1CCCCC1, also called Ac-Phe(pNH2)-Chg-Arg-Leu-Pro-NH2) [Ac-F(pNH2)-Chg-R-L-P-NH2]
 | < 100 µM |  | Ac-[dpAph]IRLP-NH2 [Ac-D-pAph-Ile-Arg-Leu-Pro-NH2]
< 100 µM |  |  | XIRLP (N-term Ac; N-(3,3-DiMe-nPentyl) on Y1; Y1=Y(SO3H); C-term NH2) [Ac-(3,3-DiMe-nPentyl)Y(SO3H)-I-R-L-P-NH2]
< 100 µM | < 100 µM |  | {5‑benzimidazolecarbonyl}-[Phe(4-NH2)][Chg]RLP-NH2 (also called (5-benzimidazoyl)-Phe(NH2)-Chg-Arg-Leu-Pro-NH2) [5-Bzim-CO-F(pNH2)-Chg-R-L-P-NH2]
 | < 100 µM |  | Ac-[Phe(4-NH2)][Chg]R[NMeL]P-NH2 (SMILES CC(=O)N[C@@H](Cc1ccc(N)cc1)C(=O)N[C@H](C(=O)N[C@@H](CCCNC(=N)N)C(=O)N(C)[C@@H](CC(C)C)C(=O)N1CCC[C@H]1C(N)=O)C1CCCCC1) [Ac-Phe(pNH2)-Chg-Arg-(Me)Leu-Pro-NH2]
< 100 µM | < 100 µM |  | Tfa-[(iBu)F(pNH2)][Chg]RLP-NH2 (SMILES CC(C)C[C@H](NC(=O)[C@H](CCCNC(=N)N)NC(=O)[C@@H](NC(=O)[C@H](Cc1ccc(N)cc1)N(CC(C)C)C(=O)C(F)(F)F)C1CCCCC1)C(=O)N1CCC[C@H]1C(N)=O, also called CF3C(O)-(iBu)Phe(NH2)-Chg-Arg-Leu-Pro-NH2) [Tfa-(iBu)F(pNH2)-Chg-R-L-P-NH2]

Reference: patent US6759384 (AVENTIS PHARMACEUTICALS, dated 2004)
